Measurements published in publication PMC9160799, “PET Imaging of Acidic Tumor Environment With ^89Zr-labeled pHLIP Probes” (Frontiers in Oncology, 2022).
Where “and” joins values, the source holds several entries; their conditions need not be identical. Equal entries are not always repeated. Square brackets hold non-standard residues; d marks the D form. Peptide text beside a SMILES is read from it. * marks the point of attachment. X1 = CC(=O)N(O)CCCCCNC(=O)CCC(=O)N(O)CCCCCNC(=O)CCC(=O)N(O)CCCCCNC(=O)CCC(=O)N(O)CCCCCNC(=S)Nc1ccc(NC(=S)*)cc1

How the values were obtained:
[1] = Tryptophan fluorescence spectra of pHLIP agents in states I, II, III; format: physicochemical; conditions: for λmax of tryptophan fluorescence, state I: in solution; for λmax of tryptophan fluorescence, state I / λmax of tryptophan fluorescence, state II: pH 8, 25.0°C; for λmax of tryptophan fluorescence, state III / λmax of tryptophan fluorescence, state II: with POPC liposomes; for λmax of tryptophan fluorescence, state III: pH 4, 25.0°C
Description: (§1) The interaction of the pHLIP agents with liposomes was investigated by recording the tryptophan fluorescence and circular dichroism (CD) spectra by using a PC1 spectrofluorometer (ISS, Inc) and an MOS-450 spectrometer (Biologic, Inc), respectively, with temperature control set to 25.0°C. Liposomes, consisting of large unilamellar vesicles, were prepared by extrusion. POPC (1-palmitoyl-2-oleoyl-sn-glycero-3-phosphocholine) (Avanti Polar Lipids, Inc.) in chloroform was desolvated on a rotary evaporator and dried under vacuum for several hours. The phospholipid film was rehydrated in 10 mM phosphate buffer, pH 8.0, vortexed, and passed 21 times through the extruder (50 nm membrane).
(§2) Using an excitation wavelength of 295 nm, tryptophan fluorescence spectra were recorded from 310–400 nm. CD spectra were recorded from 190–260 nm with 1-nm steps. The concentration of the peptide and the POPC liposomes varied in different experiments: 5–15 μM of pHLIP agents and 1 mM of POPC liposomes.
The pH-dependent insertion of the peptides into the lipid bilayer of the POPC liposomes was studied by monitoring either the changes in tryptophan fluorescence spectra or changes in the molar ellipticity at 222 nm as a function of the pH value. After the addition of aliquots of HCl, the pH values of the solutions containing peptide and POPC liposomes were measured using an Orion PerHecT ROSS Combination pH Micro Electrode and an Orion Dual Star pH and ISE Benchtop Meter. Fluorescence spectra were analyzed using the Protein Fluorescence and Structural Tool Kit (PFAST) ([41]) to determine the positions of spectral maxima (λ max ). The λ max and millidegree data were normalized to 0–1 and were plotted as a function of pH. The pH-dependence was fit with the Henderson-Hasselbach equation to determine the cooperativity (n) and the mid-point (pK) of transition: […]

[2] = pH-dependent insertion into lipid bilayer of POPC liposomes (Trp fluorescence and CD); format: physicochemical; conditions: with Zr, pH drop 8 to 3, Henderson-Hasselbalch fit
Description: as §1, §2
The pH-dependent insertion of the peptides into the lipid bilayer of the POPC liposomes was studied by monitoring either the changes in tryptophan fluorescence spectra or changes in the molar ellipticity at 222 nm as a function of the pH value. After the addition of aliquots of HCl, the pH values of the solutions containing peptide and POPC liposomes were measured using an Orion PerHecT ROSS Combination pH Micro Electrode and an Orion Dual Star pH and ISE Benchtop Meter. Fluorescence spectra were analyzed using the Protein Fluorescence and Structural Tool Kit (PFAST) ([41]) to determine the positions of spectral maxima (λ max ). The λ max and millidegree data were normalized to 0–1 and were plotted as a function of pH. The pH-dependence was fit with the Henderson-Hasselbach equation to determine the cooperativity (n) and the mid-point (pK) of transition:
Normalized pH dependence=1/1+10^n(pH−pK)

[3] = Post-mortem biodistribution, RM-1 tumor model; format: in vivo, male athymic nude mice; conditions: male, athymic nude, mouse, in vivo, iv, 1.2 nmol, total radioactivity
Description: (§3) The media were provided by the MSK Media Preparation Core. […] Another aliquot was diluted with the medium so that 50 µL contained 1×10^6 cells.
(§4) The imaging and biodistribution studies were performed with male (RM-1 model) and female (4T1 model) athymic nude mice and the kidney-blocking experiments were performed with female SCID mice received from Charles River Laboratories (Stone Ridge, NY). After arrival, the mice were kept in the MSK vivarium for one week before any experimental handling was performed. The animals were allowed free access to water and food, and all animal care and experimental procedures were approved by the Institutional Animal Care and Use Committee (IACUC). For the subcutaneous allografts, a 1-to-1 ratio of Corning Matrigel Matrix and the cell solution was prepared and stored on ice for the injections. Each mouse received a subcutaneous injection of 100 µL (50 µL cell solution, viability > 90%, + 50 µL Matrigel) into the flank on the level of the right shoulder. The injections were performed under anesthesia (2% isoflurane, Baxter Healthcare, Deerfield, IL, USA).
(§5) The mice were intravenously injected (tail vein) with the radiolabeled pHLIP conjugates (1.2 nmol, 7.4 MBq/200 µCi, 100 µL, in sterile filtered PBS). The activity of the syringe prior to injection and after injection was used to determine the percent of injectate administered.
(§6) For the biodistribution studies the tumor-bearing mice were randomized before the injections. Only mice with suitable tumors (150–300 mm^3) were utilized. An exception was made for the 120-hour timepoint, for which only mice with smaller tumors (150 mm^3) were selected. The mice were grouped in cohorts of four. At the respective timepoint, the mice were euthanized (by CO2 asphyxiation, followed by cervical dislocation) and their blood was collected by cardiac puncture as a terminal procedure, followed by quick removal of the tumors. After this, the other organs/samples were collected. […] The exact activities of all samples of one mouse were determined by an Capintec® CRC-55tR dose calibrator. These decay-corrected measurements were used to determine a calibration factor and calibrate all counts to the corresponding activities. Activity concentrations were calculated as percentage injected dose per tissue weight (%ID/g wet tissue). All data was processed and visualized using Origin 8.5.

RM-1 tumor allografts = assay: Post-mortem biodistribution, RM-1 tumor model; format: in vivo, male athymic nude mice; conditions: mouse, in vivo, iv, 1.2 nmol, 48 h
Description: as §3, §4, §5, §6

in vivo = assay: in vivo; set-up: species or system female athymic nude mice; conditions: female, athymic nude, mouse, iv, 1.2 nmol, total radioactivity
Description: as §3, §4, §5, §6

[4] = change of Trp fluorescence maximum

## CC(=O)N[C@H](C)C(=O)N[C@H](CCCCNC(=S)Nc1ccc(NC(=S)NCCCCCN(O)C(=O)CCC(=O)NCCCCCN(O)C(=O)CCC(=O)NCCCCCN(O)C(=O)CCC(=O)NCCCCCN(O)C(C)=O)cc1)C(=O)N[C@H](CC(=O)O)C(=O)N[C@H](CC(=O)O)C(=O)N[C@H](CCC(N)=O)C(=O)N[C@H](CC(N)=O)C(=O)N1CCC[C@@H]1C(=O)N[C@H](Cc1c[nH]c2ccccc12)C(=O)N[C@H](CCCNC(=N)N)C(=O)N[C@H](C)C(=O)N[C@H](Cc1ccc(O)cc1)C(=O)N[C@H](CC(C)C)C(=O)N[C@H](CC(=O)O)C(=O)N[C@H](CC(C)C)C(=O)N[C@H](CC(C)C)C(=O)N[C@H](Cc1ccccc1)C(=O)N1CCC[C@@H]1C(=O)N[C@@H](C(=O)N[C@H](CC(=O)O)C(=O)N[C@@H](C(=O)N[C@H](CC(C)C)C(=O)N[C@H](CC(C)C)C(=O)N[C@H](CC(C)C)C(=O)N[C@H](CC(=O)O)C(=O)N[C@H](CC(C)C)C(=O)N[C@H](CC(C)C)C(=O)N[C@H](Cc1c[nH]c2ccccc12)C(=O)N[C@H](C)C(=O)O)[C@H](C)O)[C@H](C)O (89Zr complex, metal not drawn) [DFO*-Lys-Var3] (Ac-[dA][dK](X1)[dD][dD][dQ][dN][dP][dW][dR][dA][dY][dL][dD][dL][dL][dF][dP][dT][dD][dT][dL][dL][dL][dD][dL][dL][dW][dA]-OH; C-terminus assumed)
[1]; with Zr, excitation 295 nm
  λmax of tryptophan fluorescence, state I: 352.0 nm
[1]; with Zr
  λmax of tryptophan fluorescence, state III: 341.4 nm
  λmax of tryptophan fluorescence, state II: 348.2 nm
[1]; without Zr
  λmax of tryptophan fluorescence, state I: 351.9 nm
  λmax of tryptophan fluorescence, state III: 341.4 nm
  λmax of tryptophan fluorescence, state II: 349.3 nm
[2]; [4]
  cooperativity (n), Fluor.: 0.79 and 0.8
  midpoint of transition (pK), Fluor.: 5.87
[2]; ellipticity at 222 nm (coil-helix transition)
  cooperativity (n), CD: 1.46
[2]; ellipticity at 222 nm
  midpoint of transition (pK), CD: 5.47

## CC(=O)N[C@H](C)C(=O)N[C@H](CCCCNC(=S)Nc1ccc(NC(=S)NCCCCCN(O)C(=O)CCC(=O)NCCCCCN(O)C(=O)CCC(=O)NCCCCCN(O)C(C)=O)cc1)C(=O)N[C@H](CC(=O)O)C(=O)N[C@H](CC(=O)O)C(=O)N[C@H](CCC(N)=O)C(=O)N[C@H](CC(N)=O)C(=O)N1CCC[C@@H]1C(=O)N[C@H](Cc1c[nH]c2ccccc12)C(=O)N[C@H](CCCNC(=N)N)C(=O)N[C@H](C)C(=O)N[C@H](Cc1ccc(O)cc1)C(=O)N[C@H](CC(C)C)C(=O)N[C@H](CC(=O)O)C(=O)N[C@H](CC(C)C)C(=O)N[C@H](CC(C)C)C(=O)N[C@H](Cc1ccccc1)C(=O)N1CCC[C@@H]1C(=O)N[C@@H](C(=O)N[C@H](CC(=O)O)C(=O)N[C@@H](C(=O)N[C@H](CC(C)C)C(=O)N[C@H](CC(C)C)C(=O)N[C@H](CC(C)C)C(=O)N[C@H](CC(=O)O)C(=O)N[C@H](CC(C)C)C(=O)N[C@H](CC(C)C)C(=O)N[C@H](Cc1c[nH]c2ccccc12)C(=O)N[C@H](C)C(=O)O)[C@H](C)O)[C@H](C)O (89Zr complex, metal not drawn) [DFO-Lys-Var3]
[3]; Blood uptake
  tissue uptake at 48 h: 0.5 ± 0.1 %ID/g
[3]; Brain uptake
  tissue uptake at 48 h: 0.06 ± 0.01 %ID/g
[3]; Heart uptake
  tissue uptake at 48 h: 1.3 ± 0.03 %ID/g
[3]; Kidneys uptake
  tissue uptake at 48 h: 27.9 ± 3.6 %ID/g
[3]; Liver uptake
  tissue uptake at 48 h: 8.7 ± 0.8 %ID/g
[3]; Lungs uptake
  tissue uptake at 48 h: 2 ± 0.6 %ID/g
[3]; Muscle uptake
  tissue uptake at 48 h: 0.5 ± 0.1 %ID/g
[3]; Pancreas uptake
  tissue uptake at 48 h: 1 ± 0.2 %ID/g
[3]; Skin uptake
  tissue uptake at 48 h: 1.7 ± 0.3 %ID/g
[3]; Spleen uptake
  tissue uptake at 48 h: 7.2 ± 0.7 %ID/g
[3]; Tibia uptake
  tissue uptake at 48 h: 1.4 ± 0.2 %ID/g
RM-1 tumor allografts
  Tumor uptake: 6.9 ± 1.9 %ID/g

## CC(=O)N[C@H](C)C(=O)N[C@H](CCCCNc1c(NCCCCCN(O)C(=O)CCC(=O)NCCCCCN(O)C(=O)CCC(=O)NCCCCCN(O)C(C)=O)c(=O)c1=O)C(=O)N[C@H](CC(=O)O)C(=O)N[C@H](CC(=O)O)C(=O)N[C@H](CCC(N)=O)C(=O)N[C@H](CC(N)=O)C(=O)N1CCC[C@@H]1C(=O)N[C@H](Cc1c[nH]c2ccccc12)C(=O)N[C@H](CCCNC(=N)N)C(=O)N[C@H](C)C(=O)N[C@H](Cc1ccc(O)cc1)C(=O)N[C@H](CC(C)C)C(=O)N[C@H](CC(=O)O)C(=O)N[C@H](CC(C)C)C(=O)N[C@H](CC(C)C)C(=O)N[C@H](Cc1ccccc1)C(=O)N1CCC[C@@H]1C(=O)N[C@@H](C(=O)N[C@H](CC(=O)O)C(=O)N[C@@H](C(=O)N[C@H](CC(C)C)C(=O)N[C@H](CC(C)C)C(=O)N[C@H](CC(C)C)C(=O)N[C@H](CC(=O)O)C(=O)N[C@H](CC(C)C)C(=O)N[C@H](CC(C)C)C(=O)N[C@H](Cc1c[nH]c2ccccc12)C(=O)N[C@H](C)C(=O)O)[C@H](C)O)[C@H](C)O (89Zr complex, metal not drawn) [DFOsqa-Lys-Var3]
In vivo; Blood uptake
  tissue uptake at 48 h: 0.4 ± 0.01 %ID/g
In vivo; Brain uptake
  tissue uptake at 48 h: 0.04 ± 0.01 %ID/g
In vivo; Heart uptake
  tissue uptake at 48 h: 1.3 ± 0.06 %ID/g
In vivo; Kidneys uptake
  tissue uptake at 48 h: 82.5 ± 10.9 %ID/g
In vivo; Liver uptake
  tissue uptake at 48 h: 11.2 ± 1 %ID/g
In vivo; Lungs uptake
  tissue uptake at 48 h: 1.4 ± 0.2 %ID/g
In vivo; Muscle uptake
  tissue uptake at 48 h: 0.5 ± 0.04 %ID/g
In vivo; Pancreas uptake
  tissue uptake at 48 h: 0.8 ± 0.1 %ID/g
In vivo; Skin uptake
  tissue uptake at 48 h: 2.6 ± 0.4 %ID/g
In vivo; Spleen uptake
  tissue uptake at 48 h: 6.9 ± 0.6 %ID/g
In vivo; Tibia uptake
  tissue uptake at 48 h: 1.5 ± 0.2 %ID/g
In vivo; Tumor uptake
  tissue uptake at 48 h: 10.2 ± 1.2 %ID/g
[3]; Blood uptake
  tissue uptake at 48 h: 0.3 ± 0.03 %ID/g
[3]; Brain uptake
  tissue uptake at 48 h: 0.06 ± 0.02 %ID/g
[3]; Heart uptake
  tissue uptake at 48 h: 1.6 ± 0.1 %ID/g
[3]; Kidneys uptake
  tissue uptake at 48 h: 82.5 ± 14.2 %ID/g
[3]; Liver uptake
  tissue uptake at 48 h: 10.8 ± 2.1 %ID/g
[3]; Lungs uptake
  tissue uptake at 48 h: 2.5 ± 0.6 %ID/g
[3]; Pancreas uptake
  tissue uptake at 48 h: 1.2 ± 0.1 %ID/g
[3]; Skin uptake
  tissue uptake at 48 h: 2.1 ± 0.07 %ID/g
[3]; Spleen uptake
  tissue uptake at 48 h: 6.4 ± 1.4 %ID/g
[3]; Tibia uptake
  tissue uptake at 48 h: 1.6 ± 0.1 %ID/g
RM-1 tumor allografts
  Tumor uptake: 12.4 ± 4.7 %ID/g
